B1: activation domain of the estrogen receptor alpha (ERɑ) (domain or fragment, UniProt P03372 1-184, looked up)
chain: MTMTLHTKASGMALLHQIQGNELEPLNRPQLKIPLERPLGEVYLDSSKPAVYNYPEGAAYEFNAAAAANAQVYGQTGLPYGPGSEAAAFGSNGLGGFPPLNSVSPSPLMLLHPPPQLSPFLQPHGQQVPYYLENEPSGYTVREAGPPAFYRPNSDNRRQGGRERLASTNDKGSMAMESAKETRY
notes: also called ERɑ AD; ERɑ (1-184 aa); source: E. coli Rosetta (DE3), pDEST17, purified (inclusion bodies in urea, HisTrap, tag cleavage, SEC); not shown: His-tag, N-terminal, cleaved
B2: activation domain of the progesterone receptor (PR) (domain or fragment, UniProt P06401 1-566, looked up)
chain: MTELKAKGPRAPHVAGGPPSPEVGSPLLCRPAAGPFPGSQTSDTLPEVSAIPISLDGLLFPRPCQGQDPSDEKTQDQQSLSDVEGAYSRAEATRGAGGSSSSPPEKDSGLLDSVLDTLLAPSGPGQSQPSPPACEVTSSWCLFGPELPEDPPAAPATQRVLSPLMSRSGCKVGDSSGTAAAHKVLPRGLSPARQLLLPASESPHWSGAPVKPSPQAAAVEVEEEDGSESEESAGPLLKGKPRALGGAAAGGGAAAVPPGAAAGGVALVPKEDSRFSAPRVALVEQDAPMAPGRSPLATTVMDFIHVPILPLNHALLAARTRQLLEDESYDGGAGAASAFAPPRSSPCASSTPVAVGDFPDCAYPPDAEPKDDAYPLYSDFQPPALKIKEEEEGAEASARSPRSYLVAGANPAAFPDFPLGPPPPLPPRATPSRPGEAAVTAAPASASVSSASSSGSTLECILYKAEGAPPQQGPFAPPPCKAPGASGCLLPRDGLPSTSASAAAAGAAPALYPALGLNGLPQLGYQAAVLKEGLPQVYPPYLNYLRPDSEASQSPQYSFESLPQKI
notes: also called PR AD; PR (1-566 aa); source: E. coli Rosetta (DE3), pDEST17, purified (inclusion bodies in urea, HisTrap, tag cleavage, SEC); not shown: His-tag, N-terminal, cleaved
B3: activation domain of the mineralocorticoid receptor (MR) (domain or fragment, UniProt P08235 1-602, looked up)
chain: METKGYHSLPEGLDMERRWGQVSQAVERSSLGPTERTDENNYMEIVNVSCVSGAIPNNSTQGSSKEKQELLPCLQQDNNRPGILTSDIKTELESKELSATVAESMGLYMDSVRDADYSYEQQNQQGSMSPAKIYQNVEQLVKFYKGNGHRPSTLSCVNTPLRSFMSDSGSSVNGGVMRAVVKSPIMCHEKSPSVCSPLNMTSSVCSPAGINSVSSTTASFGSFPVHSPITQGTPLTCSPNVENRGSRSHSPAHASNVGSPLSSPLSSMKSSISSPPSHCSVKSPVSSPNNVTLRSSVSSPANINNSRCSVSSPSNTNNRSTLSSPAASTVGSICSPVNNAFSYTASGTSAGSSTLRDVVPSPDTQEKGAQEVPFPKTEEVESAISNGVTGQLNIVQYIKPEPDGAFSSSCLGGNSKINSDSSFSVPIKQESTKHSCSGTSFKGNPTVNPFPFMDGSYFSFMDDKDYYSLSGILGPPVPGFDGNCEGSGFPVGIKQEPDDGSYYPEASIPSSAIVGVNSGGQSFHYRIGAQGTISLSRSARDQSFQHLSSFPPVNTLVESWKSHGDLSSRRSDGYPVLEYIPENVSSSTLRSVSTGSSRPSKI
notes: also called MR AD; MR (1-602 aa); source: E. coli Rosetta (DE3), pDEST17, purified (inclusion bodies in urea, HisTrap, tag cleavage, SEC); not shown: His-tag, N-terminal, cleaved
B4: activation domain of the glucocorticoid receptor (GR) (domain or fragment, UniProt P04150 1-420, looked up)
chain: MDSKESLTPGREENPSSVLAQERGDVMDFYKTLRGGATVKVSASSPSLAVASQSDSKQRRLLVDFPKGSVSNAQQPDLSKAVSLSMGLYMGETETKVMGNDLGFPQQGQISLSSGETDLKLLEESIANLNRSTSVPENPKSSASTAVSAAPTEKEFPKTHSDVSSEQQHLKGQTGTNGGNVKLYTTDQSTFDILQDLEFSSGSPGKETNESPWRSDLLIDENCLLSPLAGEDDSFLLEGNSNEDCKPLILPDTKPKIKDNGDLVLSSPSNVTLPQVKTEKEDFIELCTPGVIKQEKLGTVYCQASFPGANIIGNKMSAISVHGVSTSGGQMYHYDMNTASLSQQQDQKPIFNVIPPIPVGSENWNRCQGSGDDNLTSLGTLNFPGRTVFSNGYSSPSMRPDVSSPPSSSSTATTGPPPKL
notes: also called GR AD; GR (1-420 aa); source: E. coli Rosetta (DE3), pDEST17, purified (inclusion bodies in urea, HisTrap, tag cleavage, SEC); not shown: His-tag, N-terminal, cleaved

Biological target: the molecule itself
Test: dynamic light scattering; one purified protein in solution; NR ADs at 2 mg/mL (AR AD also 35 µM), Tau-5* at 200 to 500 µM; 5 °C; 20 mM sodium phosphate pH 7.4, 1 mM TCEP, 0.5% DMSO-d6; percent of monomer against higher-order species; also with increasing EPI-001

Binding result, binds:
B1
B2
B3
B4

— doi:10.1101/2025.03.21.644603, “Oligomerization enables the selective targeting of intrinsically disordered regions by small molecules” (bioRxiv, 2025)
